This is an account of results in patent publication US20110024630A1, “System, Device, and Methods for Real-Time Screening of Live Cells, Biomarkers, and Chemical Signatures” (BATTELLE MEMORIAL INSTITUTE, priority 2009, published 2011).

The test system of this data set is JB6 carcinogenesis mouse endothelial model cells. As to the kind of experiment: Real-time ATR-FTIR monitoring of confluent cells treated with tumor promoter (bFGF). The data set is classed as cell-based. The settings on record: 72-hour time point, bFGF added at 48 hours. As to the method:
Spent media was replaced with fresh media at 24-hour intervals. Cells were confluent at 24 hours and had attached to the ATR substrate. […] The 1604 cm^−1 band also contains a broad water band which is observed at the 6.5 hour time point where there is greater media contact with the ATR substrate due to a non-confluent cell monolayer. […] Tyrosine aromatic rings absorb in the 1508 cm^−1 region and the symmetric carboxylate stretching vibrations are reflected in the band at 1452 cm^−1. Overall, data reflect the ability to obtain spectra over a period of days which show the attachment of cells to the substrate and a response to perturbation.
Mouse cells (JB6 carcinogenesis mouse endothelial model cells) (clone 41-5a, ATCC, Manassas, Va., USA) were maintained in a minimal essential medium (MEM+GlutaMAX-I™, CISCO, Grand Island, N.Y.) supplemented with 5% fetal bovine serum (FBS) (Atlanta Biologicais, Norcross, Ga.) that further included: 1% penicillin/streptomycin (GIBCO, Grand Island, N.Y.) and an additional 1%. GlutaMAX-I™ (GIBCO, Grand Island, N.Y.). Cells were maintained at 37° C. and 5% CO2 in an incubator (e.g., a ThermoForma Series II Water Jacketed CO2 incubator. Thermo Fisher Scientific, inc., Waltham, Mass.) equipped with a HEPA filter. The JB6 cells were subcultured at 70-80% confluency following standard protocols. […]

Consider basic fibroblast growth factor [bFGF], for which the “cell outcome to which spectral results are attributed” value is recorded as “cell death”. Moreover, the “1696 cm^-1 amide peak” value (FIG. 7b) is “increased intensity and has broadened”.
